Laboratory results as given in US20180155451A1 (published 2018).

T1: FcγRIIa H (FcγRIIa type H, His at position 131), extracellular domain with C-terminal His tag (human, UniProt P12318 34-217)
T1 construct: extracellular domain; also called 2aH; FcgRIIa H; not shown: His tag at the C terminus
T1 sequence (looked up): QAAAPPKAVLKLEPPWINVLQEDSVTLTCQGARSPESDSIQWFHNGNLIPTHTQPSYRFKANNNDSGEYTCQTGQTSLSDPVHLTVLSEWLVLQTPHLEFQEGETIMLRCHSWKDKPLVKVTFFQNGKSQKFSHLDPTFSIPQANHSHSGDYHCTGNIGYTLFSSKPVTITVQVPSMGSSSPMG

T2: FcγRIIb, extracellular domain with C-terminal His tag (human, UniProt P31994 43-217)
T2 construct: extracellular domain; also called 2b; FcgRIIb; not shown: His tag at the C terminus
T2 sequence (looked up): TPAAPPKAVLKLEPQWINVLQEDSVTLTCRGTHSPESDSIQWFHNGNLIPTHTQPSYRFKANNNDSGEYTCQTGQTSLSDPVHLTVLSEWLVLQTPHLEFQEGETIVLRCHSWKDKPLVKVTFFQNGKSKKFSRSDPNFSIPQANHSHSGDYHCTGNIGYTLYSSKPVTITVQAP

T3: FcγRIIb extracellular domain with C-terminal His tag (human, UniProt P31994 43-217)
T3 construct: extracellular domain; also called FcgRIIb; 2b; not shown: His tag at the C terminus
T3 sequence (looked up): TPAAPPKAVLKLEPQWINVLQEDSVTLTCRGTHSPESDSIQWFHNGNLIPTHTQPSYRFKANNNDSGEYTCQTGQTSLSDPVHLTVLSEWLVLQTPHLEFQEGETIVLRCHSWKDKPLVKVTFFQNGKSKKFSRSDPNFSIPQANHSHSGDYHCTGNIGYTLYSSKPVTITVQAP


Assays:
[1] = target: T1, FcγRIIa H (FcγRIIa type H, His at …); experiment: SPR (Biacore), antibody captured on antigen-peptide chip, FcγR as analyte; GpH7-A5/GpH7-B3/GpL16-k0 = 100
Experimental: (§1) The heterodimerized antibodies He Abs in which one of the H chains was introduced with an alteration were assayed for their binding activities to each activating FcγR and inhibitory FcγR according to the method described in Example 4. […] The activating FcγRs in FIGS. 26, 27, 28, and 29 are FcγRIa, FcγRIIa (R), FcγRIIa (H), and FcγRIIIa, respectively.
(§2) Analysis of interaction between objective antibody and the FcγR was carried out using Biacore T100 (GE Healthcare). HBS-EP+ (GE Healthcare) was used as the running buffer, and the measurement temperature was set to 25° C. Chips produced by immobilizing the antigen peptide by the amine coupling method to a Series S Sencor Chip CM5 (GE Healthcare), or alternatively, chips produced by allowing preliminarily biotinylated antigen peptides to interact with and immobilize onto a Series S Sensor Chip SA (certified) (GE Healthcare) were used. Antibodies of interest were captured onto an antigen peptide-immobilized chip, and allowed to interact to each FcγR diluted with running buffer. To regenerate and repeatedly use the chip, the antibodies captured on the chip were washed off by reacting 10 mM glycine-HCl, pH 1.5.

[2] = target: T2, FcγRIIb, extracellular domain with …; experiment: as above
Experimental: as §1, §2

[3] = target: T4, FcγRIIIa extracellular domain with C-terminal His tag (human, UniProt P08637 17-208); experiment: SPR (Biacore), antibody captured on antigen peptide chip, FcγR as analyte; relative binding amount
T4 construct: extracellular domain; also called FcgRIIIa; 3a; not shown: His tag at the C terminus
Experimental: as §2
(§3) The FcγR-binding activity of each antibody was assessed primarily using as an indicator the FcγR-binding activity and dissociation constant for FcγR.

[4] = target: T3, FcγRIIb extracellular domain with …; experiment: as above
Experimental: as §2, §3

T4 sequence (P08637 17-208): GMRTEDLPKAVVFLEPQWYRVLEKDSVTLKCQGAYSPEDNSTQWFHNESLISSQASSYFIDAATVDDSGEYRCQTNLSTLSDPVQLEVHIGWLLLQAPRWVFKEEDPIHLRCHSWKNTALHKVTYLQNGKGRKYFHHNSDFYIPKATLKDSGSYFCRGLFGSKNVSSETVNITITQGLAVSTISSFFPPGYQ

He/Con_2aH (relative binding activity) [1]	He/Con_2b (relative binding activity) [2]	He/Con_3a [3]	He/Con_2b [4]	Binder
98.1 % of control	102 % of control			GpH7-A5/GpH7-B3 variant S298_06M/GpL16-k0 (antibody, human IgG1, kappa, Heterodimerized IgG1 (He Ab); mutation only in the GpH7-B3 chain; also called He Ab S298M) heavy 1: not shown heavy 2: not shown light: DIVMTQSPLSLPVTPGEPASISCQASESLVHSNRNTYLHWYLQKPGQSPQLLIYKVSNRFSGVPDRFSGSGSGTDFTLKISRVEAEDVGVYYCSQNTHVPPTFGQGTKVEIERTVAAPSVFIFPPSDEQLKSGTASVVCLLNNFYPREAKVQWKVDNALQSGNSQESVTEQDSKDSTYSLSSTLTLSKADYEKHKVYACEVTHQGLSSPVTKSFNRGEC
		93.1 % of GpH7-A5/GpH7-B3/GpL16-k0 (=100)	120 % of GpH7-A5/GpH7-B3/GpL16-k0 (=100)	GpH7-A5/GpH7-B3 variant P271_09D/GpL16-k0 (antibody, human IgG1, kappa, Heterodimerized anti-glypican-3 IgG1; the substitution stands in the GpH7-B3 chain only; also called He Ab) heavy 1: not shown heavy 2: not shown light: DIVMTQSPLSLPVTPGEPASISCQASESLVHSNRNTYLHWYLQKPGQSPQLLIYKVSNRFSGVPDRFSGSGSGTDFTLKISRVEAEDVGVYYCSQNTHVPPTFGQGTKVEIERTVAAPSVFIFPPSDEQLKSGTASVVCLLNNFYPREAKVQWKVDNALQSGNSQESVTEQDSKDSTYSLSSTLTLSKADYEKHKVYACEVTHQGLSSPVTKSFNRGEC
		97.5 % of GpH7-A5/GpH7-B3/GpL16-k0 (=100)	106 % of GpH7-A5/GpH7-B3/GpL16-k0 (=100)	GpH7-A5/GpH7-B3 variant H268_15Y/GpL16-k0 (antibody, human IgG1, kappa, Heterodimerized anti-glypican-3 IgG1; the substitution stands in the GpH7-B3 chain only; also called He Ab) heavy 1: not shown heavy 2: not shown light: DIVMTQSPLSLPVTPGEPASISCQASESLVHSNRNTYLHWYLQKPGQSPQLLIYKVSNRFSGVPDRFSGSGSGTDFTLKISRVEAEDVGVYYCSQNTHVPPTFGQGTKVEIERTVAAPSVFIFPPSDEQLKSGTASVVCLLNNFYPREAKVQWKVDNALQSGNSQESVTEQDSKDSTYSLSSTLTLSKADYEKHKVYACEVTHQGLSSPVTKSFNRGEC
97.2 % of control	134 % of control			GpH7-A5/GpH7-B3 variant Y300_10E/GpL16-k0 (antibody, human IgG1, kappa, Heterodimerized IgG1 (He Ab); mutation only in the GpH7-B3 chain; also called He Ab Y300E) heavy 1: not shown heavy 2: not shown light: DIVMTQSPLSLPVTPGEPASISCQASESLVHSNRNTYLHWYLQKPGQSPQLLIYKVSNRFSGVPDRFSGSGSGTDFTLKISRVEAEDVGVYYCSQNTHVPPTFGQGTKVEIERTVAAPSVFIFPPSDEQLKSGTASVVCLLNNFYPREAKVQWKVDNALQSGNSQESVTEQDSKDSTYSLSSTLTLSKADYEKHKVYACEVTHQGLSSPVTKSFNRGEC
		71 % of GpH7-A5/GpH7-B3/GpL16-k0 (=100)	103 % of GpH7-A5/GpH7-B3/GpL16-k0 (=100)	GpH7-A5/GpH7-B3 variant P271_08L/GpL16-k0 (antibody, human IgG1, kappa, Heterodimerized anti-glypican-3 IgG1; the substitution stands in the GpH7-B3 chain only; also called He Ab) heavy 1: not shown heavy 2: not shown light: DIVMTQSPLSLPVTPGEPASISCQASESLVHSNRNTYLHWYLQKPGQSPQLLIYKVSNRFSGVPDRFSGSGSGTDFTLKISRVEAEDVGVYYCSQNTHVPPTFGQGTKVEIERTVAAPSVFIFPPSDEQLKSGTASVVCLLNNFYPREAKVQWKVDNALQSGNSQESVTEQDSKDSTYSLSSTLTLSKADYEKHKVYACEVTHQGLSSPVTKSFNRGEC
85 % of control	108 % of control			GpH7-A5/GpH7-B3 variant S298_08L/GpL16-k0 (antibody, human IgG1, kappa, Heterodimerized IgG1 (He Ab); mutation only in the GpH7-B3 chain; also called He Ab S298L) heavy 1: not shown heavy 2: not shown light: DIVMTQSPLSLPVTPGEPASISCQASESLVHSNRNTYLHWYLQKPGQSPQLLIYKVSNRFSGVPDRFSGSGSGTDFTLKISRVEAEDVGVYYCSQNTHVPPTFGQGTKVEIERTVAAPSVFIFPPSDEQLKSGTASVVCLLNNFYPREAKVQWKVDNALQSGNSQESVTEQDSKDSTYSLSSTLTLSKADYEKHKVYACEVTHQGLSSPVTKSFNRGEC
		96.7 % of GpH7-A5/GpH7-B3/GpL16-k0 (=100)	144 % of GpH7-A5/GpH7-B3/GpL16-k0 (=100)	GpH7-A5/GpH7-B3 variant H268_01G/GpL16-k0 (antibody, human IgG1, kappa, Heterodimerized anti-glypican-3 IgG1; the substitution stands in the GpH7-B3 chain only; also called He Ab) heavy 1: not shown heavy 2: not shown light: DIVMTQSPLSLPVTPGEPASISCQASESLVHSNRNTYLHWYLQKPGQSPQLLIYKVSNRFSGVPDRFSGSGSGTDFTLKISRVEAEDVGVYYCSQNTHVPPTFGQGTKVEIERTVAAPSVFIFPPSDEQLKSGTASVVCLLNNFYPREAKVQWKVDNALQSGNSQESVTEQDSKDSTYSLSSTLTLSKADYEKHKVYACEVTHQGLSSPVTKSFNRGEC
97.6 % of control	103 % of control			GpH7-A5/GpH7-B3 variant Y296_20W/GpL16-k0 (antibody, human IgG1, kappa, Heterodimerized IgG1 (He Ab); mutation only in the GpH7-B3 chain; also called He Ab Y296W) heavy 1: not shown heavy 2: not shown light: DIVMTQSPLSLPVTPGEPASISCQASESLVHSNRNTYLHWYLQKPGQSPQLLIYKVSNRFSGVPDRFSGSGSGTDFTLKISRVEAEDVGVYYCSQNTHVPPTFGQGTKVEIERTVAAPSVFIFPPSDEQLKSGTASVVCLLNNFYPREAKVQWKVDNALQSGNSQESVTEQDSKDSTYSLSSTLTLSKADYEKHKVYACEVTHQGLSSPVTKSFNRGEC
